The results in this text go back to the supplement of paper PMC9112550, “Optimization of the antimicrobial peptide Bac7 by deep mutational scanning” (BMC Biology, 2022).
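Further: peptides expressed intracellularly from a pBAD plasmid library in pooled LB shake-flask culture, induced with 0.3% L-arabinose, DNA abundance read by NGS, three biological replicates, DESeq2 with apeglm shrinkage.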

For this series, the system named is Escherichia coli TOP10. The series can be described thus: shrunken log2 fold change of peptide-encoding DNA abundance (4.5 h post-induction vs induction); higher = less antimicrobial activity (less host growth inhibition). The conditions noted are these: time post-induction: 4.5 h; library: site-saturation at positions 5, 18, 19, 20.
For the sequence RRIRWRPPRLPRPRPRPPEQPRP, the “shrunken log2 fold change” value worked out at 0.153. For RRIRERPPRLPRPRPRPSKLPRP, the “shrunken log2 fold change” value is -1.06.

As for RRIRPRPPRLPRPRPRPEREPRP, the “shrunken log2 fold change” value is 0.49. The result for RRIRSRPPRLPRPRPRPCDAPRP reads -0.122; that for RRIRVRPPRLPRPRPRPGQRPRP, 0.0272; that for RRIRCRPPRLPRPRPRPFIKPRP, -0.715. The result for RRIRWRPPRLPRPRPRPMNWPRP reads 0.0484; that for RRIRIRPPRLPRPRPRPHKMPRP, -0.237; that for RRIRQRPPRLPRPRPRPYNPPRP, -0.529. The result for RRIRARPPRLPRPRPRPPQVPRP reads 0.162; that for RRIRKRPPRLPRPRPRPEFIPRP, 0.146; that for RRIRMRPPRLPRPRPRPIYRPRP, -0.0679.

Consider RRIRLRPPRLPRPRPRPKLRPRP, for which the “shrunken log2 fold change” value is -0.00715.

In the case of RRIRERPPRLPRPRPRPMQGPRP, the “shrunken log2 fold change” value is -0.0783. With RRIRHRPPRLPRPRPRPTTIPRP the figure was -0.165. The result for RRIRFRPPRLPRPRPRPDHYPRP reads -0.184. With RRIRLRPPRLPRPRPRPRPMPRP the figure was 0.725; with RRIRIRPPRLPRPRPRPVPIPRP, -0.403. For RRIRFRPPRLPRPRPRPYEAPRP, the “shrunken log2 fold change” value was -0.493. RRIRHRPPRLPRPRPRPPPIPRP: the “shrunken log2 fold change” value worked out at 0.361.

For RRIRMRPPRLPRPRPRPVPYPRP, the “shrunken log2 fold change” value was determined as 0.193. With RRIRWRPPRLPRPRPRPFSIPRP the figure was -0.228; with RRIRVRPPRLPRPRPRPYRVPRP, -0.0295.

In the case of RRIRHRPPRLPRPRPRPRGEPRP, the “shrunken log2 fold change” value was -0.0677. With RRIRWRPPRLPRPRPRPQGPPRP the figure was 1.32. The result for RRIRVRPPRLPRPRPRPCILPRP reads -0.208; that for RRIRLRPPRLPRPRPRPFMFPRP, -0.306; that for RRIRPRPPRLPRPRPRPWSTPRP, -0.172. With RRIRFRPPRLPRPRPRPSDVPRP the figure was 0.0142; with RRIRHRPPRLPRPRPRPLYAPRP, -0.402; with RRIRWRPPRLPRPRPRPHKKPRP, 0.028. On to RRIRNRPPRLPRPRPRPCGQPRP, for which the “shrunken log2 fold change” value was determined as 0.0151. With RRIRDRPPRLPRPRPRPMWVPRP the figure was 0.179; with RRIRTRPPRLPRPRPRPIKMPRP, -0.0667; with RRIRPRPPRLPRPRPRPYGYPRP, -0.138. The result for RRIRIRPPRLPRPRPRPNREPRP reads -0.0355; that for RRIRMRPPRLPRPRPRPDRPPRP, 0.107; that for RRIRYRPPRLPRPRPRPTSEPRP, -0.0408.

With RRIRERPPRLPRPRPRPEHRPRP, the “shrunken log2 fold change” value is -0.0185. Turning to RRIRGRPPRLPRPRPRPGPEPRP, the “shrunken log2 fold change” value came to 0.954. Regarding RRIRRRPPRLPRPRPRPNSEPRP, the “shrunken log2 fold change” value was found to be 0.381.

With RRIRRRPPRLPRPRPRPVSWPRP, the “shrunken log2 fold change” value amounted to 0.849. With RRIRERPPRLPRPRPRPQQMPRP the figure was -0.237. With RRIRNRPPRLPRPRPRPAMRPRP the figure was 0.842. Regarding RRIRGRPPRLPRPRPRPSPDPRP, the “shrunken log2 fold change” value turned out to be 0.69. With RRIRFRPPRLPRPRPRPFWCPRP the figure was -0.27. With RRIRMRPPRLPRPRPRPDEEPRP the figure was 2.97; with RRIRMRPPRLPRPRPRPFNLPRP, -0.16. Regarding RRIRNRPPRLPRPRPRPNTDPRP, the “shrunken log2 fold change” value was -0.249.

Take RRIRGRPPRLPRPRPRPAVTPRP: the “shrunken log2 fold change” value turned out to be 0.688. For RRIRARPPRLPRPRPRPICWPRP, the “shrunken log2 fold change” value was determined as 0.231.

RRIRQRPPRLPRPRPRPFGFPRP: the “shrunken log2 fold change” value is -0.233. In the case of RRIRLRPPRLPRPRPRPCQTPRP, the “shrunken log2 fold change” value is -0.0348. The result for RRIRGRPPRLPRPRPRPQREPRP reads 0.225. Consider RRIRARPPRLPRPRPRPGKDPRP, for which the “shrunken log2 fold change” value is 0.36. Consider RRIRGRPPRLPRPRPRPYFWPRP, for which the “shrunken log2 fold change” value was determined as 0.0833. The result for RRIRLRPPRLPRPRPRPSYDPRP reads -0.292. With RRIRYRPPRLPRPRPRPKFWPRP the figure was 0.449; with RRIRWRPPRLPRPRPRPKTYPRP, -0.421; with RRIRYRPPRLPRPRPRPERVPRP, -0.0107.

Consider RRIRERPPRLPRPRPRPGGCPRP, for which the “shrunken log2 fold change” value was found to be 1.44. With RRIRNRPPRLPRPRPRPIQIPRP the figure was -0.363; with RRIRKRPPRLPRPRPRPYQQPRP, -0.00547.

Take RRIRQRPPRLPRPRPRPPRLPRP: the “shrunken log2 fold change” value stood at 0.287. With RRIRERPPRLPRPRPRPRLIPRP the figure was -0.635; with RRIRERPPRLPRPRPRPFNQPRP, -0.279.

For the sequence RRIRCRPPRLPRPRPRPTAFPRP, the “shrunken log2 fold change” value came out at 0.0759. Consider RRIRSRPPRLPRPRPRPGCPPRP, for which the “shrunken log2 fold change” value was 0.18. As to RRIRARPPRLPRPRPRPFHRPRP, the “shrunken log2 fold change” value was found to be 0.206. As to RRIRFRPPRLPRPRPRPWWNPRP, the “shrunken log2 fold change” value was -0.26. The result for RRIRNRPPRLPRPRPRPMANPRP reads -9.3e-05; that for RRIRARPPRLPRPRPRPWQMPRP, -0.0506.

Turning to RRIRGRPPRLPRPRPRPVEIPRP, the “shrunken log2 fold change” value was 0.177.

For RRIRSRPPRLPRPRPRPQVIPRP, the “shrunken log2 fold change” value came out at 0.00733. With RRIRCRPPRLPRPRPRPATWPRP the figure was -0.104; with RRIRERPPRLPRPRPRPFHKPRP, -0.355. The result for RRIRLRPPRLPRPRPRPQGLPRP reads -0.0348.

As for RRIRTRPPRLPRPRPRPQVYPRP, the “shrunken log2 fold change” value was -0.168.

RRIRWRPPRLPRPRPRPRHMPRP: the “shrunken log2 fold change” value is -0.139. With RRIRERPPRLPRPRPRPLCAPRP, the “shrunken log2 fold change” value is -0.0485. The result for RRIRKRPPRLPRPRPRPYMYPRP reads -0.445; that for RRIRSRPPRLPRPRPRPNLEPRP, -0.144. With RRIRVRPPRLPRPRPRPCCNPRP the figure was -0.426. As for RRIRNRPPRLPRPRPRPYLVPRP, the “shrunken log2 fold change” value is -0.161.

RRIRERPPRLPRPRPRPWYDPRP: the “shrunken log2 fold change” value is -0.392. With RRIRDRPPRLPRPRPRPNTAPRP the figure was -0.0636. The result for RRIRVRPPRLPRPRPRPFETPRP reads -0.0538; that for RRIRSRPPRLPRPRPRPHKCPRP, 0.00997; that for RRIRIRPPRLPRPRPRPKWKPRP, -0.152. The result for RRIRMRPPRLPRPRPRPMCCPRP reads 0.207; that for RRIRKRPPRLPRPRPRPWTAPRP, 0.00666; that for RRIRDRPPRLPRPRPRPANNPRP, -0.218.

In the case of RRIRMRPPRLPRPRPRPIGWPRP, the “shrunken log2 fold change” value turned out to be 0.599. With RRIRTRPPRLPRPRPRPNCEPRP the figure was 0.111; with RRIRWRPPRLPRPRPRPCWTPRP, 0.0677.

On to RRIRVRPPRLPRPRPRPFCFPRP, for which the “shrunken log2 fold change” value worked out at 0.0496. With RRIRMRPPRLPRPRPRPELQPRP the figure was -0.00152; with RRIRVRPPRLPRPRPRPLDKPRP, 0.0163; with RRIRKRPPRLPRPRPRPIAQPRP, 0.208. Take RRIRPRPPRLPRPRPRPWALPRP: the “shrunken log2 fold change” value was -0.0895. With RRIRDRPPRLPRPRPRPDPHPRP the figure was 0.0248; with RRIRVRPPRLPRPRPRPQCAPRP, 0.135. The result for RRIRARPPRLPRPRPRPGWNPRP reads 0.545; that for RRIRIRPPRLPRPRPRPSFCPRP, -0.656. Take RRIRARPPRLPRPRPRPMYLPRP: the “shrunken log2 fold change” value was -0.506. With RRIRLRPPRLPRPRPRPRINPRP the figure was -0.0907; with RRIRRRPPRLPRPRPRPAKSPRP, 0.242. On to RRIRKRPPRLPRPRPRPDNLPRP, for which the “shrunken log2 fold change” value is -0.0561. For RRIRNRPPRLPRPRPRPWGVPRP, the “shrunken log2 fold change” value stood at 0.112. The result for RRIRSRPPRLPRPRPRPVMGPRP reads -0.0522; that for RRIRYRPPRLPRPRPRPEDRPRP, 0.119. The result for RRIRNRPPRLPRPRPRPRLPPRP reads 0.245. With RRIRRRPPRLPRPRPRPSMEPRP the figure was 0.0198; with RRIRSRPPRLPRPRPRPLENPRP, -0.0294. For the sequence RRIRRRPPRLPRPRPRPFYMPRP, the “shrunken log2 fold change” value is -0.198. The result for RRIRDRPPRLPRPRPRPYDNPRP reads -0.307. As for RRIRWRPPRLPRPRPRPMPKPRP, the “shrunken log2 fold change” value was 0.115. Regarding RRIRDRPPRLPRPRPRPEIWPRP, the “shrunken log2 fold change” value worked out at 0.162. With RRIRPRPPRLPRPRPRPCEYPRP the figure was 1.65; with RRIRQRPPRLPRPRPRPSHYPRP, -0.224.

Consider RRIRMRPPRLPRPRPRPLNGPRP, for which the “shrunken log2 fold change” value is -0.00843. With RRIRCRPPRLPRPRPRPRADPRP the figure was 0.454; with RRIRIRPPRLPRPRPRPTMTPRP, -0.0629. In the case of RRIRHRPPRLPRPRPRPWSTPRP, the “shrunken log2 fold change” value is -0.0631. The result for RRIRGRPPRLPRPRPRPPAEPRP reads 1.64.
